Assay results reported in patent US9731011B2, “Combination tumor treatment with drug-loaded, bispecific ligand-targeted minicells and interferon-gamma” (EnGeneIC Molecular Delivery Pty Ltd, priority 2013, dated 2017).

Tests used:
Type in all cases: in vivo, athymic nude mice
[1] = system: human breast tumor xenografts (MDA-MB-468); assay: Human breast cancer (MDA-MB-468) xenograft, moderate tumors ~145 mm^3 (Example 3); conditions: start ~145 mm^3; i.v.; 1×10^9 minicells per dose; IFN-gamma 0.5×10^4 IU per dose; by day 30, six doses
Method: (§1) As described above, minicells were purified, packaged with doxorubicin, and targeted using single chain bispecific antibody with anti-O-polysaccharide and anti-EGFR specificities. Additionally, human breast cancer cells (MDA-MB-468; ATCC) were established as xenografts in nu/nu mice, and tumor volumes were measured, also as described.
The treatments commenced when the tumors reached a mean of ˜145 mm^3, and mice were randomized to four different groups of seven mice per group. All treatments were administered i.v. in a total volume of 100 μl. All minicell doses contained 1×10^9 minicells of the respective type.
The experiment was designed as follows: Group 1 (control) received sterile physiological saline only. Group 2 (control) received IFN-gamma (0.5×10^4 IU) per dose.

[2] = system: human breast tumor xenografts (MDA-MB-468); assay: Human breast cancer (MDA-MB-468) xenograft, large tumors ~250 mm^3 (Example 4); conditions: start ~250 mm^3; i.v.; 1×10^9 minicells per dose; IFN-gamma 0.5×10^4 IU per dose; by day 28, 3 doses
Method: as §1, with “doxorubicin” for “doxorubicin,”, “Human” for “Additionally, human”, “(MDA-MB-468)” for “(MDA-MB-468; ATCC)”, “described above.” for “described.”
The treatments were begun when the tumors reached a mean of ˜250 mm^3. As above, mice were randomized to four different groups of seven mice per group. The i.v. administration and minicell doses were as above, too.
The experiment was designed as follows. Group 1 (control) received sterile physiological saline only. Group 2 (control) received IFN-gamma (0.5×10^4 IU) per dose.

[3] = system: human alveolar adenocarcinoma tumor xenografts (A549); assay: Human alveolar adenocarcinoma (A549) xenograft, tumors ~285 mm^3 (Example 2); conditions: start ~285 mm^3; i.v.; 1×10^9 minicells per dose; IFN-gamma 0.5×10^4 IU per dose; by day 43, six doses
Description: As described above, minicells were produced from an S. typhimurium minCDE-mutant strain and were purified using a gradient centrifugation/filamentation/filtration/endotoxin removal procedure previously described in MacDiarmid et al. (2007). The purified minicells were packaged with chemotherapeutic drug doxorubicin, also per MacDiarmid et al. (2007).
The bispecific antibody (BsAb) was a single polypeptide containing binding specificity respectively for S. typhimurium O-polysaccharide, present on minicells, and for human EGFR, overexpressed on alveolar adenocarcinoma cells. The O-polysaccharide specificity was derived from a mouse monoclonal antibody, for which the variable regions were isolated from a hybridoma cell line and presented as a single-chain variable fragment (scFv). The hybridoma cell line was prepared by immunizing mice with purified LPS and fusing the lymphocytes with tumor cells. Subsequently, the clones were screened for an antibody capable of binding the O-polysaccharide. The EGFR specificity, also presented as an scFv, was derived from the commercial antibody Erbitux® (Bristol Myers Squibb, USA). […]
The resulting tumors were measured twice a week, using an electronic digital caliper (Mitutoyo, Japan, with a measure accuracy of +/−0.001 inch), and mean tumor volume was calculated using the formula length (mm)×width (mm^2)×0.5=volume (mm^3). […]

Measured: anti-tumor effect (tumor volume)

B1: IFN-gamma: interferon-gamma protein; given i.v. to mice, or endogenous serum level in dogs (protein, UniProt P01580 23-155, looked up)
Interferon gamma: HGTVIESLESLNNYFNSSGIDVEEKSLFLDIWRNWQKDGDMKILQSQIISFYLRLFEVLKDNQAISNNISVIESHLITTFFSNSKAKKDAFMSIAKFEVNNPQVQRQAFNELIRVVHQLLPESSLRKRKRSRC
no anti-tumor efficacy: all assays above
